pKd: −log10 of the molar value.
Tests used:
Assay in all cases: EMSA
Details in all cases: EMSA: 10 nM 6-FAM oligo, 50 mM HEPES pH 7.5, 250 mM NaCl, 1 mM DTT, 2.5 mM EDTA, 10% glycerol, on ice 10 min, 8% native PAGE; sumo-rA3G after heavy RNase A/T1 …
[1] = test system: rA3G rM14 (Macaca mulatta)
[2] = test system: rA3G R24T (Macaca mulatta)
[3] = test system: rA3G rM12 (Macaca mulatta)
[4] = test system: rA3G rM15 (Macaca mulatta)
[5] = test system: rA3G rM11 (Macaca mulatta)
[6] = test system: rA3G rM10 (Macaca mulatta)
[7] = test system: rA3G rM9 (Macaca mulatta)
[8] = test system: rA3G rM13 (Macaca mulatta)
[9] = test system: rA3G E/Q (Macaca mulatta)
[10] = test system: rA3G WT (parental construct, R8 K128D) (Macaca mulatta)

Substance	pKd [1]	pKd [2]	pKd [3]	pKd [4]	pKd [5]	pKd [6]	pKd [7]	pKd [8]	pKd [9]	pKd [10]
50 nt ssDNA	6.99	7.29	6.73	7.15	7.05	7.28	7.13	6.81	8.00	7.62
50 nt ssRNA	7.82	7.68	7.28	7.68	7.68	7.62	7.70	7.37	7.72	7.66

Reference: paper PMC6994475
